Measurements taken from article PMC9834408, “The SPOC domain is a phosphoserine binding module that bridges transcription machinery with co- and post-transcriptional regulators” (Nature Communications, 2023).

Assays:
[1] = target: WTAP peptide (first 19 N-terminal amino acids) phosphorylated at S14 (UniProt Q15007); experiment: fluorescence polarisation; fluorescence anisotropy; 90 nM labelled peptide (Atto-488 on CTD peptides, FAM on NCoR and FMR1 peptides) titrated with increasing concentrations of SPOC domain; 20 °C; 25 mM Tris-Cl pH 7.4, 25 mM NaCl, 1 mM DTT; three independent dilution series
2×S5P CTD diheptapeptide = experiment: as above

SHARP SPOC (3496–3664 aa), sequence (Q96T58 3496-3664): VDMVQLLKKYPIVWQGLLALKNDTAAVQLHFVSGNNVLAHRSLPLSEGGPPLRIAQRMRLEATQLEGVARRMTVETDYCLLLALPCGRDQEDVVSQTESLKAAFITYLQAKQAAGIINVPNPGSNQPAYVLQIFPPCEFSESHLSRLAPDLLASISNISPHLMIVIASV

“RBM15 SPOC (775–960 aa) (from UniProt Q96T37 775-960) (domain or fragment)” showed a Kd [1] of 21.5 µM.
For “SHARP SPOC (3496–3664 aa) (from UniProt Q96T58 3496-3664) (domain or fragment)”, the Kd (2×S5P CTD diheptapeptide) was 20.6 µM.
